Results as given in article PMC11940188.

Key:
[1] = target: Rho13 (Rhodonellum psychrophilum); assay: SAXS; nominal 1 mg/mL enzyme (Ika2 1.00, Rho13 0.94, I3C6 0.87 mg/mL by Abs280), 25 °C, 1800 s; indirect Fourier transformation and fits to AlphaFold models; self-association
[2] = target: Rho13 (Rhodonellum psychrophilum); assay: SAXS; nominal 0.5 mg/mL enzyme (Ika2 0.51, Rho13 0.46, I3C6 0.46 mg/mL by Abs280), 25 °C, 1800 s; indirect Fourier transformation and fits to AlphaFold models; self-association
[3] = target: Rho13 (Rhodonellum psychrophilum); assay: SEC; Superdex-200 Increase, 0.5 mL/min, Ni-NTA eluates after PD-10 desalting; 100 mM HEPES, 150 mM NaCl, 2 mM CaCl2 pH 6.5 or 50 mM MOPS, 50 mM NaCl, 2 mM CaCl2 pH 7.5; calibrated with lysozyme, carbonic anhydrase and BSA; self-association, monomer and dimer

## Rho13 (enzyme)
[1]
  dimer concentration in the SAXS model fit: 0.69 mg/mL
  monomer concentration in the SAXS model fit: 0.03 mg/mL
  n-mers (SAXS model fit): 1.96
  n-mers (indirect Fourier transformation): 1.58
[2]
  dimer concentration in the SAXS model fit: 0.29 mg/mL
  monomer concentration in the SAXS model fit: 0.06 mg/mL
  n-mers (SAXS model fit): 1.83
  n-mers (indirect Fourier transformation): 1.38
[3]
  share of the combined peak area, dimer peak: 26%
  stoichiometry N: 2
